Assay results published in patent US12356911B2, “Group of UDP-glycosyltransferase for catalyzing carbohydrate chain elongation and application thereof” (GSYNBIOT (SHANGHAI) CO., LTD, priority 2017, dated 2025).

How the values were obtained:
Assay type in all cases: biochemical
[1] = In vitro transglycosylation at C-3, Rh2 as glycosyl acceptor, UDP-glucose as donor; details: crude enzyme (E. coli lysate supernatant); TLC, FIG. 13, FIG. 15
Excerpt: (§1) Cell lysate of recombinant E. coli with empty vector pET28a was used as a control.

[2] = In vitro transglycosylation at C-20, CK as glycosyl acceptor, UDP-glucose as donor; details: crude enzyme (E. coli lysate supernatant); TLC/HPLC, FIG. 2, 3, 12, 16
Excerpt: as §1
As shown in FIG. 16: Protopanaxadiol Ginsenoside CK is used as a glycosyl acceptor, and UDP-glucose is used as a glycosyl donor.

[3] = In vitro transglycosylation at C-20, Rd as glycosyl acceptor, UDP-glucose as donor; details: crude enzyme (E. coli lysate supernatant); TLC/HPLC, FIG. 2, 3, 11
Excerpt: as §1

| Molecule | product formation from Rh2 and UDP-glucose (Rg3) [1] | product formation from CK and UDP-glucose (Gypenoside LXXV) [2] | product formation from Rd and UDP-glucose (Rb1) [3] |
| --- | --- | --- | --- |
| GT29-46: Ginseng UDP-glycosyltransferase, 442 amino acids, SEQ ID NO.: 100 (protein, primer) MDNQEGRISIALLPFLAHGHISPFFELAKQLAKRNCNVFLCSTPINLSSIKNKDSSASIKLVELHLPSSPDLPPHYHTTNGLPSHLMVPLINAFETAGPTFSEILKTLNPDLLIYDFNPSWAPEIASSHNIPAVYFLTTAAASSSIGLHAFKNPGEKYPFPDFYDNSNNTPEPPSADNMKLLHDFIACFERSCDIILIKSFIELEGKYIDLLSTLSDKTLVPVGPLVQDPMGHNEDPKTEQIINWLDKRAESTVVFVYFGSEYFLSNEELEEVAIGLEISMVNFIWAVRLIEGEKKGVLPEGFVQRVGDRGLVVEGWAPQARILGHSSTGGFVSHCGWSSIAESMKFGVPVIAMARHLDQPLNGKLAAEVGVGMEVVRDENGKYKREGIAEVIRKVVVEKSGEVMRRKARELSEKMKEKGEEEIDRAVEELVQICKKKKDAQ | can all catalyze the extension of a glucosyl at the C-3 glycosyl of Rh2 to generate Rg3 | can catalyze the C-20 glycosyl of CK to extend a glucosyl to produce Gypenoside LXXV | – |
| GT29-45: Ginseng UDP-glycosyltransferase, 448 amino acids, SEQ ID NO.: 98 (protein, Panax ginseng) MDIEKGRISIVMLPFLAHGHISPFFELAKHLSKRNCNIFLCSTPINLSSIKNRVSDKDSSASIKLVELHLPSSPDLPPHYHTTNGLPSHLMVPLRNAFETAAPTFSEILKTLNPDLLIYDFNPSWAPEIASSHNIPAVYFLTSAAATSSMGLHAFKNSGEKYPFPDFYDNSNITPEPPSADKMKLFHDFVACFKRSCDIILIKSFRELEGKYIDFLSTLSKKTLVPVGPLVQDPMGHDEDPKTGHLINWLDKRAESTVVFVCFGSEYFPSNEELEELAIGLEISMVSFILAVRFPEGEKKGILPEGFVQRVGDRGLVVEGWAPQARILGHSSTGGFVSHCGWSSIMESVKFGVPVIAMARHLDQPLNAKLAAEVGVGMEVMRDENGKYKREAIAEVIRKVVMEKNGEVMRRKARELSEKMKVKGEQEIGRAVEELVQICKKKKQHAQY | can all catalyze the extension of a glucosyl at the C-3 glycosyl of Rh2 to generate Rg3 | can catalyze the C-20 glycosyl of CK to extend a glucosyl to produce Gypenoside LXXV | – |
| PNUGT29-2: Panax notoginseng glycosyltransferase, 442 amino acids, SEQ ID NO: 41 (protein, Panax notoginseng) MDNQKGRISIALLPFLAHGHISPFFELAKQLAKRNCNVFLCSTPINLSSIKNKDSSASVKLVELHLPSSPDLPPHYHTTNGLPSHLMVPLRNAFETVGPTFSEILKTLNPDLLIYDFNPSWAPEIASSHNIPAVYFLTTAAASSSIGLHAFKNPGEKYPFPDFYDNSNITPEPPSADNMKLLHDFIACFERSCDIILIKSFRELEGKYIDLLSTLSDKTLVPVGPLVQDPMGHNEDPKTEQIINWLDKRAESTVVFVCFGSEYFLSNEELEEVAIGLEISMVNFIWAVRLIEGEKKGVLPEGFVQRVGDRGLVVEGWAPQARILGHSSTGGFVSHCGWSSIAESMRFGVPVIAMARHLDQPLNAKLAAEVGVGMEVVRDDNGKYKREGIAEVIRKVVVEKSGEVIRRKARELSEKMKEKGEQEIDRAVEELVQICKKKKDAQ | can catalyze the extension of a glucosyl at the C-3 glycosyl of Rh2 to generate Rg3 | can catalyze the extension of a glucosyl at the C-20 glycosyl to generate Gypenoside LXXV | can catalyze the extension of a glucosyl at the C-20 glycosyl of Rd to generate Rb1 |
| PNUGT29-14: Panax notoginseng glycosyltransferase, 447 amino acids, SEQ ID NO: 57 (protein, Panax notoginseng) MYIEKGRISIVMLPFLAHGHISPFFELAKHLSKRNCNIFLCSTPINLSSIKNRVSDKDSSASIKLVELHLPSSPDLPPQYHTTNGLPSHLMVPLKNAFETVGPTFSEILKTLDPDLLIYDFNPSWAPEIALSHNIPAVYFLTSAAATSSVALRALKNPGEKYPFPDFYDNSNITPEPPSADKMKLFHDFVACFKRSCDIILIKSFRELEGKYIDLLSTLSKKTLVPVGPLVQDPLGHDEDPKTGHLINWLDKRAESTVVFVCFGSEYFPSNEELEEVAIGLEISMVNFILAVRFLEGEKKGVLPEGFVQRVGDRGLVVEGWAPQARILGHSSTGGFVSHCGWSSIMESVKFGVPVIAMARHLDQPLNAKLAAEVGVGMEVVRDENGKYKREAIAEVIRKVVMEKNGEVIRRKARELSEKMKETGEQEIGRAVEELVQICKMKKDAQY | can catalyze the extension of a glucosyl at the C-3 glycosyl of Rh2 to generate Rg3 | can catalyze the extension of a glucosyl at the C-20 glycosyl to generate Gypenoside LXXV | can catalyze the extension of a glucosyl at the C-20 glycosyl of Rd to generate Rb1 |
| PNUGT29-3: Panax notoginseng glycosyltransferase, 447 amino acids, SEQ ID NO: 43 (protein) MDIEKGRISIVMLPFLAHGHISPFFELAKHLSKRNCNIFLCSTPINLSSIKNRVSDKDSSASIKLVELHLPSSPDLPPQYHTTNGLPSHLMVPLKNAFETVGPTFSEILKTLDPDLLIYDFNPSWAPEIALSHNIPAVYFLTSAAATSSVALRALKNPGEKYPFPDFYDNSNITPEPPSADKMKLFHDFVACFKRSCDIILIKSFRELEGKYIDLLSTLSKKTLVPVGPLVQDPLGHDEDPKTGHLINWLDKRAESTVVFVCFGSEYFPSNEELEEVAIGLEISMVNFILAVRFLEGEKKGVLPEGFVQRVGDRGLVVEGWAPQARILGHSSTGGFVSHCGWSSIMESVKFGVPVIAMARHLDQPLNAKLAAEVGVGMEVVRDENGKYKREAIAEVIRKVVMEKNGEVIRRKARELSEKMKETGEQEIGRAVEELVQICKMKKDAQY | can catalyze the extension of a glucosyl at the C-3 glycosyl of Rh2 to generate Rg3 | can catalyze the extension of a glucosyl at the C-20 glycosyl to generate Gypenoside LXXV | can catalyze the extension of a glucosyl at the C-20 glycosyl of Rd to generate Rb1 |
| PNUGT29-1: Panax notoginseng glycosyltransferase, 447 amino acids, SEQ ID NO: 39 (protein, Panax notoginseng) MDIEKGRISIVMLPFLAHGHISPFFELAKHLSKRNCNIFLCSTPINLSSIKSRVSDKDSSASIKLVELHLPSSPDLPPQYHTTNGLPSHLMVPLKNAFETVGPTFSEILKTLDPDLLIYDFNPSWAPEIALSHNIPAVYFLTSAAATSSVALRALKNPGEKYPFPDFYDNSNITPEPPSADKMKLFHDFVACFKRSCDIILIKSFRELEGKYIDLLSTLSKKTLVPVGPLVQDPLGHDEDPKTGHLINWLDKRAESTVVFVCFGSEYFPSNEELEEVAIGLEISMVNFILAVRFLEGEKKGVLPEGFVQRVGDRGLVVEGWAPQARILGHSSTGGFVSHCGWSSIMESVKFGVPVIAMARHLDQPLNAKLAAEVGVGMEVVRDENGKYTREAIAEVIRKVVMEKNGEVIRRKARELSDKMKEKGEQEIGRAVEELVQICKMKKDAQY | can catalyze the extension of a glucosyl at the C-3 glycosyl of Rh2 to generate Rg3 | can catalyze the extension of a glucosyl at the C-20 glycosyl to generate Gypenoside LXXV | can catalyze the extension of a glucosyl at the C-20 glycosyl of Rd to generate Rb1 |
| PNUGT29-4: Panax notoginseng glycosyltransferase, 447 amino acids, SEQ ID NO: 45 (protein, Panax notoginseng) MDIEKGRISIVMLPFLAHGHISPFFELAKHLSKRNCNIFLCSTPINLSSIKNRVSDKDSSASIKLVELHLPSSPDLPPQYHTTNGLPSHLMVPLKNAFETVGPTFSEILKTLDPDLLIYDFNPSWAPEIALSHNIPAVYFLTSAAATSSVALRALKNPGEKYPFPDFYDNSNITPEPPSADKMKLFHDFVACFKRSCDIILIKSFRELEGKYIDLLSTLSKKTLVPVGPLVQDPLGHDEDPKTGHLINWLDKRAESTVVFVCFGSEYFPSNEELEEVAIGLEISMVNFILAVRFLEGEKKGVLPEGFVQRVGDRGLVVEGWAPQARILGHSSTGGFVSHCGWSSIMESVKFGVPVIAMARHLDQPLNAKLAAEVGVGMEVVRDENGKYTREAIAEVIRKVVMEKNGEVIRRKARELSDKMKEKGEQEIGRAVEELVQICKMKKDAQY | can catalyze the extension of a glucosyl at the C-3 glycosyl of Rh2 to generate Rg3 | can catalyze the extension of a glucosyl at the C-20 glycosyl to generate Gypenoside LXXV | can catalyze the extension of a glucosyl at the C-20 glycosyl of Rd to generate Rb1 |
| PNUGT29-15: Panax notoginseng glycosyltransferase, 447 amino acids, SEQ ID NO: 59 (protein, Panax notoginseng) MDIEKGRISIVMLPFLAHGHISPFFELAKHLSKRNCNIFLCSTPINLSSIKNRVSDKDSSASIKLVELHLPSSPDLPPQYHTTNGLPSHLMVPLKNAFETVGPTFSEILKTLDPDLLIYDFNPSWAPEIALSHNIPAVYFLTSAAATSSVALRALKNPGEKYPFPDFYDNSNITPEPPSADKMKLFHDFVACFKRSCDIILIKSFRELEGKYIDLLSTLSKKTLVPVGPLVQDHLGHDEDPKTGHLINWLDKRAESTVVFVCFGSEYFPSNEELEEVAIGLEISMVNFILAVRFLEGEKKGVLPEGFVQRVGDRGLVVEGWAPQARILGHSSTGGFVSHCGWSSIMESVKFGVPVIAMARHLDQPLNAKLAAEVGVGMEVVRDENGKYTREAIAEVIRKVVMEKNGEVIRRKARELSDKMKEKGEQEIGRAVEELVQICKMKKDAQY | can catalyze the extension of a glucosyl at the C-3 glycosyl of Rh2 to generate Rg3 | can catalyze the extension of a glucosyl at the C-20 glycosyl to generate Gypenoside LXXV | can catalyze the extension of a glucosyl at the C-20 glycosyl of Rd to generate Rb1 |
